Measured values taken from US20090074795A1, “Methods for addressing ocular diseases through interference with the wnt signaling pathway” (priority 2007, published 2009).
Entries after “also recorded” stand apart in the source; their conditions may differ.

Test system: primary RCEC
Assay: HIF-1 activation and VEGF expression induced by LiCl in primary RCEC
Format: cell-based, bovine
Details: 50 mM LiCl plus 85 ng/ml DKK1, 24 hours
Method: Blockade of the wnt pathway by DKK1 down-regulates VEGF and HIF-1 expression and reduces vascular leakage in the retina of diabetic rats. To activate the wnt pathway, primary RCEC were treated with 50 mM LiCl, a specific activator of the wnt pathway, in the presence or absence of 85 ng/ml DKK1, a specific inhibitor of the wnt pathway, or BSA for 24 hours. Hypoxia was used as a positive control for HIF-1 activation. The HIF-1 nuclear translocation, a key step in its activation, was measured by immunocytochemistry. Both LiCl and hypoxia increased nuclear levels of HIF-1α, indicating an increased nuclear translocation.
According to embodiments of experimental data, RCEC were exposed to normoxia (FIG. 17A), hypoxia (1% O2) (FIG. 17B), 50 mM LiCl with BSA (FIG. 17C), or 50 mM LiCl plus 85 ng/ml DKK1 (FIG. 17D) for 24 hours. The nuclear translocation of HIF-1α was determined by immunocytochemistry with an antibody against HIF-1α. […] In FIG. 17E, the total levels of VEGF and HIF-1α were determined by western blot analysis with an antibody against HIF-1α or VEGF.

B1: DKK1: Purified Dickkopf-1 protein (R&D System), specific inhibitor of the wnt pathway binding LRP5/6; mouse protein in mice, human in HUVEC (protein, UniProt O54908 32-272; O54908 32-272, looked up)
Dickkopf-related protein 1 1: TLNSVLINSNAIKNLPPPLGGAGGQPGSAVSVAPGVLYEGGNKYQTLDNYQPYPCAEDEECGSDEYCSSPSRGAAGVGGVQICLACRKRRKRCMRHAMCCPGNYCKNGICMPSDHSHFPRGEIEESIIENLGNDHNAAAGDGYPRRTTLTSKIYHTKGQEGSVCLRSSDCAAGLCCARHFWSKICKPVLKEGQVCTKHKRKGSHGLEIFQRCYCGEGLACRIQKDHHQASNSSRLHTCQRH
Dickkopf-related protein 1 2: B1 Dickkopf-related protein 1 1
modifications: mouse protein in mice, human in HUVEC
immunocytochemistry
  HIF-1 nuclear translocation induced by LiCl: inhibited the HIF-1 nuclear translocation; also recorded: blocked
Western blot
  HIF-1α over-expression induced by activation of the wnt pathway: blocked
  VEGF over-expression induced by activation of the wnt pathway: blocked
